Experimental data as given in US20230048960A1 (University of Washington, published 2023).
Square brackets hold non-standard residues; d marks the D form.

Target: Aβ42 (UniProt P05067 672-713)
Experiment: cell-based or functional assay

Chain of Aβ42 (P05067 672-713 limits assumed): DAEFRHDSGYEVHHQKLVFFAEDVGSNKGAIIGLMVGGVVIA

| Binder | % inhibition of fibril formation (ThT), AP:Aβ42 1:1 [%] | % inhibition of fibril formation (ThT), AP:Aβ42 1:10 [%] | % inhibition of fibril formation (ThT), AP:Aβ42 1:100 [%] |
| --- | --- | --- | --- |
| Ac-RCE[dM]N[dL]S[dW]M[dN][dE][dY][dY]GW[dT]M[dN]M[dK]MGR-NH2 (also: disulfide-linked homodimer via Cys2) [AP524d] | 100 | 86.1 | 43.1 |
| Ac-RCE[dM]N[dL]S[dW]M[dN][dE][dY][dY]GW[dT]M[dN]M[dK]MGR-NH2 (SMILES CSCC[C@H](NC(=O)[C@@H](CCCCN)NC(=O)[C@H](CCSC)NC(=O)[C@@H](CC(N)=O)NC(=O)[C@H](CCSC)NC(=O)[C@H](NC(=O)[C@H](Cc1c[nH]c2ccccc12)NC(=O)CNC(=O)[C@@H](Cc1ccc(O)cc1)NC(=O)[C@@H](Cc1ccc(O)cc1)NC(=O)[C@@H](CCC(=O)O)NC(=O)[C@@H](CC(N)=O)NC(=O)[C@H](CCSC)NC(=O)[C@@H](Cc1c[nH]c2ccccc12)NC(=O)[C@H](CO)NC(=O)[C@@H](CC(C)C)NC(=O)[C@H](CC(N)=O)NC(=O)[C@@H](CCSC)NC(=O)[C@H](CCC(=O)O)NC(=O)[C@H](CS)NC(=O)[C@H](CCCNC(=N)N)NC(C)=O)[C@H](C)O)C(=O)NCC(=O)N[C@@H](CCCNC(=N)N)C(N)=O) [AP524m] | 45.8 | 7.2 | 0 |
| Ac-RGE[dC]N[dL]S[dW]M[dN][dE][dY][dY]GW[dT]M[dN]M[dK]MGR-NH2 (SMILES CSCC[C@H](NC(=O)[C@@H](CCCCN)NC(=O)[C@H](CCSC)NC(=O)[C@@H](CC(N)=O)NC(=O)[C@H](CCSC)NC(=O)[C@H](NC(=O)[C@H](Cc1c[nH]c2ccccc12)NC(=O)CNC(=O)[C@@H](Cc1ccc(O)cc1)NC(=O)[C@@H](Cc1ccc(O)cc1)NC(=O)[C@@H](CCC(=O)O)NC(=O)[C@@H](CC(N)=O)NC(=O)[C@H](CCSC)NC(=O)[C@@H](Cc1c[nH]c2ccccc12)NC(=O)[C@H](CO)NC(=O)[C@@H](CC(C)C)NC(=O)[C@H](CC(N)=O)NC(=O)[C@@H](CS)NC(=O)[C@H](CCC(=O)O)NC(=O)CNC(=O)[C@H](CCCNC(=N)N)NC(C)=O)[C@H](C)O)C(=O)NCC(=O)N[C@@H](CCCNC(=N)N)C(N)=O) [AP523m] | 49 | 9 | 0 |
| Ac-RGE[dC]N[dL]S[dW]M[dN][dE][dY][dY]GW[dT]M[dN]M[dK]MGR-NH2 (also: disulfide-linked homodimer (Cys4 to Cys4 of other copy), disulfide at 4, other end not in the chain) [AP523d] | 100 | 87.3 | 40.3 |
| Ac-RGE[dC]N[dL]S[dW]MNEYYGW[dT]M[dN]M[dK]MGR-NH2 (also: disulfide-linked homodimer (Cys4 to Cys4 of other copy), disulfide at 4, other end not in the chain) [AP522d] | 100 | 88.1 | 52.4 |
